Experimental data from article PMC10983868 (bioRxiv, 2025).

Experiments:
[1] = target: Clostridium difficile toxin B (TcdB) (Clostridium difficile, UniProt P18177); test: flow cytometry on cells
[2] = target: soluble biotinylated TcdB fragment (1401-1616) (Clostridioides difficile VP10463, UniProt P18177, biotin); test: flow cytometry on cells
soluble biotinylated TcdB fragment (1401-1616), sequence (P18177 1401-1616): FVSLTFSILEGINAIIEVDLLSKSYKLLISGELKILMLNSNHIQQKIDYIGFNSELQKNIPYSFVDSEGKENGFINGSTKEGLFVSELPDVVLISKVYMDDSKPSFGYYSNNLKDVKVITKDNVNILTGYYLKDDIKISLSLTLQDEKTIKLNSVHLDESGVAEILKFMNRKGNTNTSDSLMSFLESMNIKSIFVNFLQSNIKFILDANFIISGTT

Clostridium difficile toxin B (TcdB), sequence (P18177 whole entry, the tested form may be a part): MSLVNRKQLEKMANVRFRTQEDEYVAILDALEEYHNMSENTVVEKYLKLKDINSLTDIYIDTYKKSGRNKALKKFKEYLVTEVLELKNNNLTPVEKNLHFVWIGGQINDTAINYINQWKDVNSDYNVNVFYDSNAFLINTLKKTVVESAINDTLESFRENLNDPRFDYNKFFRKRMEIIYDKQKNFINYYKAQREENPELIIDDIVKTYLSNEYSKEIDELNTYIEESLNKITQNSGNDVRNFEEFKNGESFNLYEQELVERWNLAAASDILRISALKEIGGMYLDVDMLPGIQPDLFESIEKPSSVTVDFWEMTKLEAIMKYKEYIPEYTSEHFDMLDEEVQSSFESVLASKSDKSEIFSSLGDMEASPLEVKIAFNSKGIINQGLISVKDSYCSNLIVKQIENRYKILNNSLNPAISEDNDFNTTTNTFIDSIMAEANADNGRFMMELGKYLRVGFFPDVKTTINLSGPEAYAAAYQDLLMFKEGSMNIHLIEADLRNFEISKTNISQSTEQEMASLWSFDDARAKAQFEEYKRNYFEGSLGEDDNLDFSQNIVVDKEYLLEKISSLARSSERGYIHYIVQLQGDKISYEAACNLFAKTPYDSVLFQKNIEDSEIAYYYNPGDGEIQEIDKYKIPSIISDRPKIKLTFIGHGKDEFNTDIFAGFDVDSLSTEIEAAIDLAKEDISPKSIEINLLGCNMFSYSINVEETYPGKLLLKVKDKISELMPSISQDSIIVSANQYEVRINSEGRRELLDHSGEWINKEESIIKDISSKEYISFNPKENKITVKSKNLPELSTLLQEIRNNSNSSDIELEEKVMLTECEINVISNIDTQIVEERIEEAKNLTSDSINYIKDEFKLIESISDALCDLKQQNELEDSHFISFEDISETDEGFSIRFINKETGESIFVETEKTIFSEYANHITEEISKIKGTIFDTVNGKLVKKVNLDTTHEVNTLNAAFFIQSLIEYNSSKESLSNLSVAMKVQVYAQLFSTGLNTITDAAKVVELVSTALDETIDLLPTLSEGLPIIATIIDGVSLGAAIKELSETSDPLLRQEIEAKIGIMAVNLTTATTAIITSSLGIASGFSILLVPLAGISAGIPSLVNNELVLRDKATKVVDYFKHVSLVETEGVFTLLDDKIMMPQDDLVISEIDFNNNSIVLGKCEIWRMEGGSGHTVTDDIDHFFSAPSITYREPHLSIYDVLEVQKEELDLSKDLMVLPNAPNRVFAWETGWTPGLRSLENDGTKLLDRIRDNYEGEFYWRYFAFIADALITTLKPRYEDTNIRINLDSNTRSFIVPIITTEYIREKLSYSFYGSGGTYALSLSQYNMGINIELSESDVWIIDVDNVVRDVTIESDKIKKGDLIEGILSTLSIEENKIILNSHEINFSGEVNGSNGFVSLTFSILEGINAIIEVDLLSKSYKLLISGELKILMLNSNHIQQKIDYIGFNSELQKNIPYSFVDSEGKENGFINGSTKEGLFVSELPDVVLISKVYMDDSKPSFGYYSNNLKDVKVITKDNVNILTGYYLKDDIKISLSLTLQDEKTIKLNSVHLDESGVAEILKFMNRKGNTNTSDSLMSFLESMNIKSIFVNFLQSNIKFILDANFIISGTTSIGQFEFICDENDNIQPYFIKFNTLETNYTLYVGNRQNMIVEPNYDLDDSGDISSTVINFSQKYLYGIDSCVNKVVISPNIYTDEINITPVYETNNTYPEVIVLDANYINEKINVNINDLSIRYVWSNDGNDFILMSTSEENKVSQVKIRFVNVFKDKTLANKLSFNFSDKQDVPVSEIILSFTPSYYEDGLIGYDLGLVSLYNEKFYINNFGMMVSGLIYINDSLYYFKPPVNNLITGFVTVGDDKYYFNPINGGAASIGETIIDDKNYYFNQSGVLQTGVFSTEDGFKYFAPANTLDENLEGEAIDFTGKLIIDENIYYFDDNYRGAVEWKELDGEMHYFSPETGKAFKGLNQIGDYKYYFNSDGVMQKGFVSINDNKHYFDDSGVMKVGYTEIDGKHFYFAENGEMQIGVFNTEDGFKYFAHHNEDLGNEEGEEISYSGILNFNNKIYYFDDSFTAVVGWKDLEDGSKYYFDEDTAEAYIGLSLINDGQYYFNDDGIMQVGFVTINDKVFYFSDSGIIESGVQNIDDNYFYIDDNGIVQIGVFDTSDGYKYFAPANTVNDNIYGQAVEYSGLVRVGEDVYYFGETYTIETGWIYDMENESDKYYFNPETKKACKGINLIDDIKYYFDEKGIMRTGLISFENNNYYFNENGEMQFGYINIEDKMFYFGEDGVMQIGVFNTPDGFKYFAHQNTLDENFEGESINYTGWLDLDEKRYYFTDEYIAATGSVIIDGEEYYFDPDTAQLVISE

B1: scFv4-C-Myc construct displayed on yeast (scFv, V domains shown)
VH: EVQLVESGGGLVQPGGSLRLSCAASGFDLKEKYIHWVRQAPGKGLEWVARINVKTGSTRYADSVKGRFTISADTSKNTAYLQMNSLRAEDTAVYYCSRENRFGALTVWGQGTLVTVSS
VL: DIQMTQSPSSLSASVGDRVTITCTTSSYVPMLVSWYQQKPGKAPKLLIYSSVIRAPGVPSRFSGSRSGTDFTLTISSLQPEDFATYYCSVLQKDGNLVFGQGTKVEIK
binding result [1]: binds | binding result [2]: binds
